We go through 3 substances from patent publication US5633451.

This assay concerns the target Dendroides canadensis thermal hysteresis proteins (purified THPs).
Tipula ice-nucleator protein PIN gave a Thermal Hysteresis (°C.) of a 4 mg/ml THP solution of 3.98 °C.
Regarding Gelatin, the Thermal Hysteresis (°C.) of a 4 mg/ml THP solution came to 3.13 °C.
The result for Tipula lipoprotein ice-nucleator (LPIN) reads 3.49 °C.
